Results published in patent US20040259176A1, “Structural basis for the guanine nucleotide-binding activity of tissue transglutaminase and its regulation of transamidation activity” (priority 2003, published 2004).

Experiments:
Format in all cases: cell-based, human
SKBR3 cells [1] = experiment: Nuclear condensation or blebbing assay (doxorubicin-induced apoptosis); conditions: SKBR3 cells stimulated with EGF (100 ng/ml) for 2 days prior to doxorubicin; FIG. 11B
Protocol: FIGS. 1A-D illustrate that the protective effect of EGF from doxorubicin-induced apoptosis is blocked by MDC in SKBR3 cells. In FIG. 11A, nearly confluent cultures of SKBR3 and MDAMB231 cells were placed in low serum medium. The following day, the cells were exposed to low serum medium +/−0.25 μM doxorubicin (Dox) for the times indicated and subsequently lysed. The presence of the activated form of caspase 3 (cleaved caspase 3) and actin (actin) in the cell extracts was assessed by Western blot analysis. In FIG. 11B, SKBR3 and MDAMB231 cells were maintained in low serum medium (0) or treated with 10 μM MDC (MDC) for 1.5 days. […] All cell cultures were then treated with +/−0.25 μM doxorubicin (Dox) for about 1 day and the cells were scored for programmed cell death as described in Example 13. […]
NIH3T3 cells were grown in Dulbecco's modified Eagle's medium containing 10% calf serum and 100 units/ml penicillin. […] Protein concentrations were determined using the Bio-Rad DC protein assay.
Cells were seeded in 6-well dishes and grown in complete medium for 2 days. […] The cultures were then incubated with fresh medium containing RA, EGF, and MDC and +/−0.2 μM doxorubicin for an additional 1.5 days and were fixed and stained with 4,6-diamidino-2-phenylindole (2 μg/ml) for viewing by fluorescence microscopy. […]

[2] = system: tissue transglutaminase (TG); experiment: TG expression by Western blot in SKBR3 cells; conditions: 5 μM RA or 100 ng/ml EGF for 2 days, FIG. 9A
Protocol: Cells were grown for 2 days in complete media and subsequently placed in low serum. The following day, cells were left untreated (0), treated with 5 μM RA (RA), 100 ng/ml EGF (EGF), or co-treated with 5 μM RA and 100 ng/ml EGF (RA/EGF) for 2 days and then lysed. In FIG. 9A, the cell extracts were used to determine TG GTP-binding activities (GTP-TGase) using an affinity-labeling assay with radioactive GTP as outlined in Example 11. Western blot analysis using TG and actin antibodies was performed to assess the expression levels of each of these proteins (TGase and actin). In FIG. 9B, the same cell lysates were assayed for TG transamidation activities as determined by the incorporation of 5-(biotin-amido) pentylamine into proteins as described in Example 12. The experiments were conducted in triplicate, quantitated, and the values from each experiment were averaged together and plotted. In FIG. 9C, SKBR3 cells were seeded at 1×10^5 cells/well and grown in low serum medium +/−5 μM RA and +/−100 ng/ml EGF for the times indicated and then counted. The results from three independent growth assays were averaged together and plotted. […]
NIH3T3 cells were grown in Dulbecco's modified Eagle's medium containing 10% calf serum and 100 units/ml penicillin. […] Protein concentrations were determined using the Bio-Rad DC protein assay. […]

[3] = system: tissue transglutaminase (TG); experiment: TG GTP-binding activity by photoaffinity labeling with [α-32P]GTP in SKBR3 cell lysates; conditions: SKBR3 cells, 5 μM RA or 100 ng/ml EGF for 2 days; FIG. 9A
Protocol: (§1) Cells were grown for 2 days in complete media and subsequently placed in low serum. The following day, cells were left untreated (0), treated with 5 μM RA (RA), 100 ng/ml EGF (EGF), or co-treated with 5 μM RA and 100 ng/ml EGF (RA/EGF) for 2 days and then lysed. In FIG. 9A, the cell extracts were used to determine TG GTP-binding activities (GTP-TGase) using an affinity-labeling assay with radioactive GTP as outlined in Example 11. Western blot analysis using TG and actin antibodies was performed to assess the expression levels of each of these proteins (TGase and actin). In FIG. 9B, the same cell lysates were assayed for TG transamidation activities as determined by the incorporation of 5-(biotin-amido) pentylamine into proteins as described in Example 12. The experiments were conducted in triplicate, quantitated, and the values from each experiment were averaged together and plotted. In FIG. 9C, SKBR3 cells were seeded at 1×10^5 cells/well and grown in low serum medium +/−5 μM RA and +/−100 ng/ml EGF for the times indicated and then counted. The results from three independent growth assays were averaged together and plotted.
Photoaffinity labeling of TG was performed by incubating whole cell lysates with 5 μCi of [α-^32P]GTP in 50 mM Tris-HCl, pH 7.4, 2 mM EGTA, 1 mM DTT, 20% (w/v) glycerol, 100 mM NaCl, and 500 μM AMP-PNP for 10 minutes at room temperature. […]

[4] = system: tissue transglutaminase (TG); experiment: TG transamidation assay (incorporation of 5-(biotin-amido) pentylamine) in SKBR3 cell extracts; conditions: SKBR3 cells, EGF compared with RA; FIG. 9A-B
Protocol: as §1
TG transamidation assays were performed as previously described with slight modifications. 15 μg of whole cell extracts were incubated in a buffer containing 2 mM 5-(biotin-amido) pentylamine, 40 mM CaCl2, and 40 mM DTT for 20 minutes. […]

SKBR3 cells [5] = experiment: Cell growth assay; conditions: low serum medium, 5 μM RA or 100 ng/ml EGF, up to 6 days; FIG. 9C
Protocol: as §1
Cells were seeded at 1×10^5 cells/well and grown in medium containing 0.5% serum +/−5 μM RA and +/−100 ng/ml EGF. Every 2 days the medium was changed. At 0, 2, 4, and 6 days of treatment, the cells were collected and counted.

[6] = system: tissue transglutaminase (TG); experiment: TG expression and activation in MDAMB231 cells (Western blot, GTP-binding, transamidation); conditions: growth factor (EGF) stimulation, FIG. 9A-B
Protocol: as §1
Total cell lysates from each sample were combined with Laemmli sample buffer, boiled, and subjected to SDS-polyacrylamide gel electrophoresis (PAGE). […]

B1: EGF: epidermal growth factor, a known mitogen and survival factor (protein, UniProt P01133 23-1207, looked up)
Pro-epidermal growth factor: PQHWSCPEGTLAGNGNSTCVGPAPFLIFSHGNSIFRIDTEGTNYEQLVVDAGVSVIMDFHYNEKRIYWVDLERQLLQRVFLNGSRQERVCNIEKNVSGMAINWINEEVIWSNQQEGIITVTDMKGNNSHILLSALKYPANVAVDPVERFIFWSSEVAGSLYRADLDGVGVKALLETSEKITAVSLDVLDKRLFWIQYNREGSNSLICSCDYDGGSVHISKHPTQHNLFAMSLFGDRIFYSTWKMKTIWIANKHTGKDMVRINLHSSFVPLGELKVVHPLAQPKAEDDTWEPEQKLCKLRKGNCSSTVCGQDLQSHLCMCAEGYALSRDRKYCEDVNECAFWNHGCTLGCKNTPGSYYCTCPVGFVLLPDGKRCHQLVSCPRNVSECSHDCVLTSEGPLCFCPEGSVLERDGKTCSGCSSPDNGGCSQLCVPLSPVSWECDCFPGYDLQLDEKSCAASGPQPFLLFANSQDIRHMHFDGTDYGTLLSQQMGMVYALDHDPVENKIYFAHTALKWIERANMDGSQRERLIEEGVDVPEGLAVDWIGRRFYWTDRGKSLIGRSDLNGKRSKIITKENISQPRGIAVHPMAKRLFWTDTGINPRIESSSLQGLGRLVIASSDLIWPSGITIDFLTDKLYWCDAKQSVIEMANLDGSKRRRLTQNDVGHPFAVAVFEDYVWFSDWAMPSVMRVNKRTGKDRVRLQGSMLKPSSLVVVHPLAKPGADPCLYQNGGCEHICKKRLGTAWCSCREGFMKASDGKTCLALDGHQLLAGGEVDLKNQVTPLDILSKTRVSEDNITESQHMLVAEIMVSDQDDCAPVGCSMYARCISEGEDATCQCLKGFAGDGKLCSDIDECEMGVPVCPPASSKCINTEGGYVCRCSEGYQGDGIHCLDIDECQLGEHSCGENASCTNTEGGYTCMCAGRLSEPGLICPDSTPPPHLREDDHHYSVRNSDSECPLSHDGYCLHDGVCMYIEALDKYACNCVVGYIGERCQYRDLKWWELRHAGHGQQQKVIVVAVCVVVLVMLLLLSLWGAHYYRTQKLLSKNPKNPYEESSRDVRSRRPADTEDGMSSCPQPWFVVIKEHQDLKNGGQPVAGEDGQAADGSMQPTSWRQEPQLCGMGTEQGCWIPVSSDKGSCPQVMERSFHMPSYGTQTLEGGVEKPHSLLSANPLWQQRALDPPHQMELTQ
modifications: Pro-epidermal growth factor
For B1, the “reduction in the rate of apoptosis” value (SKBR3 cells [1]) was 50%, the TG expression [2] was “up-regulated TG expression” and the “TG GTP-binding activity” value [3] was “increased GTP-binding”. The “GTP-binding and enzymatic (transamidation) activity of TG” value [4] was “more effective than RA”, the “growth of SKBR3 cells” value (SKBR3 cells [5]) was “did not impede the growth” and the “constitutive level of TG expression or activation” value [6] was “did not alter the constitutive level of TG expression or activation”.
